According to patent US20240376207A1 (JIANGSU HENGRUI PHARMACEUTICALS, published 2024):

How the values were obtained:
[1] = biological target: T1, his-tagged human PVRIG (h-PVRIG-his) recombinant protein (human, UniProt Q6DKI7 41-171, limits assumed); test: ELISA, coated antigen
T1 construct: bought from Acrobiosystems; also called Human PVRIG-his; human PVRIG recombinant protein; not shown: his tag
T1 sequence (looked up): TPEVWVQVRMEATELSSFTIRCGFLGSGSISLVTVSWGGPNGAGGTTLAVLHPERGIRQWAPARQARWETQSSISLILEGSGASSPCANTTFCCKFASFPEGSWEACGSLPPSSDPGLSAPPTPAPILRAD

[2] = biological target: T2, mouse IgG2a Fc-tagged human PVRIG (h-PVRIG-mIgG2a Fc) recombinant protein (human, UniProt Q6DKI7 41-171, limits assumed); test: competition ELISA; human PVRIG coated, competitor human PVRL2
T2 construct: bought from Acrobiosystems; not shown: mouse IgG2a Fc tag
T2 sequence (looked up): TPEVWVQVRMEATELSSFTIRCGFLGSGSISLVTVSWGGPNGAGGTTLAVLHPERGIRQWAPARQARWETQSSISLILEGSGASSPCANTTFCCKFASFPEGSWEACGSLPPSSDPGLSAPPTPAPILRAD

B1: positive antibody Tab5 (antibody, human IgG4 S228P, kappa, F234A L235A, V domains shown)
VH: EVQLVESGGGVVKPGGSLRLSCAASGFTFGTSSMNWVRQAPGKGLEWVAVISFDGTEIHYADSVKGRFTISRDNSKSTVFLQMNSLRPDDTALYYCAKGSGNIYFYSGMDVWGQGTTVTVSS
VL: DIQMTQSPSTLSASVGDRVTITCRAGQSISGWLAWFQQKPGKAPNLLIYETSTLESGVPSRFSGSGSGTEYTLTISSLQPDDFATYYCQQYYSYPLTFGQGTKVEIKR
notes: Variable regions of CPA.7.021 (WO2016134333A1) on human IgG4 (S228P/F234A/L235A/K447A) and human kappa constant regions
EC50 [1]: 1.86 nM
IC50 [2]: 0.797 nM
